For this assay, the target named is fusion protein encoded by plasmid pIcoFLAGXa (amino terminal FLAG epitope, Factor Xa cleavage sequence Ile-Glu-Gly-Arg-Gly, thioredoxin with the V5 epitope at the active site, GPI linkage), displayed on COS7 cells (E. coli) [thioredoxin: P0AA25]. Description: cell-based or functional assay.

Results on 1 substance are retold here after patent US20050255464A1, “Methods for the identification of peptidyl compounds interacting with extracellular target molecules” (priority 2001, published 2005).

Regarding Factor Xa (enzyme), the cells selected on streptavidin magnetic beads with biotin anti-FLAG antibody after incubation with Factor Xa was 0 % of cells.
